The target in this data set is T1, MdNAC104-His (Malus domestica, UniProt D9ZJ88 1-204).
T1 sequence: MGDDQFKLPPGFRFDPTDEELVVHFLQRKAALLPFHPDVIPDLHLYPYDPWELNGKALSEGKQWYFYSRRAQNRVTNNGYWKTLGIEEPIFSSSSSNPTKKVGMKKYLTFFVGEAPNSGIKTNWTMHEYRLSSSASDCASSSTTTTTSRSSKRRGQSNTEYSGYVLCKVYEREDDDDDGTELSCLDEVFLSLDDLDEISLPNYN
Kind of data set: EMSA; LightShift Chemiluminescent EMSA kit (Thermo) per manufacturer; buffer, salt, pH and temperature not stated. The following applies: protein: recombinant; tags: His (pET32a); chain copies: 2; label: biotin; blunt.

Residue numbers refer to the chain shown, from its start.

B1: MdCBF3-P1 (dsDNA)
DNA 1: TATATATATTCATGTGGATTGGGTGATGAG
DNA 2: CTCATCACCCAATCCACATGAATATATATA
Turning to B1, the binding result is given as “binds”.

B2: MdF3H-a-P5 (dsDNA)
DNA 1: CAATTGAGTAATTTCGTTCTTAATTCTTTT
DNA 2: AAAAGAATTAAGAACGAAATTACTCAATTG
Take B2: the binding result is recorded as “binds”.

B3: MdF3H-a-P7 (dsDNA)
DNA 1: CAAAAATATTTTCCGTAATGAAGTGTCTTG
DNA 2: CAAGACACTTCATTACGGAAAATATTTTTG
Consider B3, for which the binding result is on record as “binds”.

B4: MdF3H-a-P3 (dsDNA)
DNA 1: GTTACCCCATATGACCATGTAACCGTCTGA
DNA 2: TCAGACGGTTACATGGTCATATGGGGTAAC
For the molecule B4, the binding result is “binds”.

B5: MdCBF3-P1-mut (dsDNA)
DNA 1: TATATATATTAAAAAAGATTGGGTGATGAG
DNA 2: CTCATCACCCAATCTTTTTTAATATATATA
On to B5, for which the binding result was “no binding”.

B6: MdFSD2-P3 (dsDNA)
DNA 1: GTCATTTTGGACGAAAACTTTAATGAAAAT
DNA 2: ATTTTCATTAAAGTTTTCGTCCAAAATGAC
B6: the binding result was “binds”.

B7: MdANS-b-P1 (dsDNA)
DNA 1: GGTGAGATGTCACATGTACAACAGCCACAT
DNA 2: ATGTGGCTGTTGTACATGTGACATCTCACC
Regarding B7, the binding result is reported as “binds”.

B8: MdCBF1-P1-mut (dsDNA)
DNA 1: CATCCCCAAAAAAAGTACACAACCAACACA
DNA 2: TGTGTTGGTTGTGTACTTTTTTTGGGGATG
For the molecule B8, the binding result was “no binding”.

B9: MdCHI-P1 (dsDNA)
DNA 1: CTTTTGAGTTGGTTTCGTTGAAGACTTTTT
DNA 2: AAAAAGTCTTCAACGAAACCAACTCAAAAG
For the molecule B9, the binding result is on record as “binds”.

B10: MdF3H-a-P2 (dsDNA)
DNA 1: ACATAGATGAATACATGTCACCGCCATAAT
DNA 2: ATTATGGCGGTGACATGTATTCATCTATGT
On to B10, for which the binding result is “binds”.

B11: MdCHS-b-P4 (dsDNA)
DNA 1: TCCTTTTTACGAAAGTGACATTACAACGAA
DNA 2: TTCGTTGTAATGTCACTTTCGTAAAAAGGA
For the molecule B11, the binding result is on record as “binds”.

B12: MdCBF1-P1 (dsDNA)
DNA 1: B8 DNA 1 with A9C, A10G
DNA 2: B8 DNA 2 with T21C, T22G
With B12, the binding result is on record as “binds”.

B13: MdF3H-a-P1 (dsDNA)
DNA 1: CAAACACAAAACGTATTTCGTTTGAGCCAA
DNA 2: TTGGCTCAAACGAAATACGTTTTGTGTTTG
On to B13, for which the binding result is on record as “binds”.

B14: MdPRXR1.1-P2 (dsDNA)
DNA 1: TTTGTAACTAACGGAAAACTTAATACAAAA
DNA 2: TTTTGTATTAAGTTTTCCGTTAGTTACAAA
In the case of B14, the binding result is on record as “binds”.

B15: MdANS-b-P4 (dsDNA)
DNA 1: GATTCCTATATATACGTAACTAGCTCATAG
DNA 2: CTATGAGCTAGTTACGTATATATAGGAATC
Regarding B15, the binding result is reported as “binds”.

B16: MdCHS-b-P2 (dsDNA)
DNA 1: GATGTGGAACATGTGTGGCTATTAGGTTGGTATTCACACGAAATACGACCTACTATATAC
DNA 2: GTATATAGTAGGTCGTATTTCGTGTGAATACCAACCTAATAGCCACACATGTTCCACATC
As for B16, the binding result is “binds”.

These data come from PMC10502760, “MdNAC104 positively regulates apple cold tolerance via CBF‐dependent and CBF‐independent pathways”.
